Assay results from paper PMC2630774 (FEBS letters, 2008).

B1: Arnt (AhR nuclear translocator), baculovirus expressed 6His fusion (natural protein)
chain: not shown
B2: 32P-CΔ553 (AhR deletion construct with C-terminal 553 amino acids deleted, thioredoxin released, 32P-labelled) (domain or fragment, human, UniProt P35869 1-295, looked up)
chain: MNSSSANITYASRKRRKPVQKTVKPIPAEGIKSNPSKRHRDRLNTELDRLASLLPFPQDVINKLDKLSVLRLSVSYLRAKSFFDVALKSSPTERNGGQDNCRAANFREGLNLQEGEFLLQALNGFVLVVTTDALVFYASSTIQDYLGFQQSDVIHQSVYELIHTEDRAEFQRQLHWALNPSQCTESGQGIEEATGLPQTVVCYNPDQIPPENSPLMERCFICRLRCLLDNSSGFLAMNFQGKLKYLHGQKKKGKDGSILPPQLALFAIATPLQPPSILEIRTKNFIFRTKHKLDF
modifications: 32P-phosphate (HMK phosphorylation using 32P-gamma ATP; residue not stated)
B3: TH-CΔ553 (thioredoxin fusion of CΔ553, a deletion construct of human AhR) (domain or fragment, UniProt P35869 1-295, looked up)
chain: B2 chain
B4: unlabelled CΔ553 (AhR deletion construct with C-terminal 553 amino acids deleted, without thioredoxin fusion) (domain or fragment, human, UniProt P35869 1-295, looked up)
chain: B2 chain

Assays:
[1] = molecular target: T1, AhR (aryl hydrocarbon receptor), baculovirus expressed 6His fusion (human, UniProt P35869 11-848); assay: native gel or EMSA
T1 sequence (looked up): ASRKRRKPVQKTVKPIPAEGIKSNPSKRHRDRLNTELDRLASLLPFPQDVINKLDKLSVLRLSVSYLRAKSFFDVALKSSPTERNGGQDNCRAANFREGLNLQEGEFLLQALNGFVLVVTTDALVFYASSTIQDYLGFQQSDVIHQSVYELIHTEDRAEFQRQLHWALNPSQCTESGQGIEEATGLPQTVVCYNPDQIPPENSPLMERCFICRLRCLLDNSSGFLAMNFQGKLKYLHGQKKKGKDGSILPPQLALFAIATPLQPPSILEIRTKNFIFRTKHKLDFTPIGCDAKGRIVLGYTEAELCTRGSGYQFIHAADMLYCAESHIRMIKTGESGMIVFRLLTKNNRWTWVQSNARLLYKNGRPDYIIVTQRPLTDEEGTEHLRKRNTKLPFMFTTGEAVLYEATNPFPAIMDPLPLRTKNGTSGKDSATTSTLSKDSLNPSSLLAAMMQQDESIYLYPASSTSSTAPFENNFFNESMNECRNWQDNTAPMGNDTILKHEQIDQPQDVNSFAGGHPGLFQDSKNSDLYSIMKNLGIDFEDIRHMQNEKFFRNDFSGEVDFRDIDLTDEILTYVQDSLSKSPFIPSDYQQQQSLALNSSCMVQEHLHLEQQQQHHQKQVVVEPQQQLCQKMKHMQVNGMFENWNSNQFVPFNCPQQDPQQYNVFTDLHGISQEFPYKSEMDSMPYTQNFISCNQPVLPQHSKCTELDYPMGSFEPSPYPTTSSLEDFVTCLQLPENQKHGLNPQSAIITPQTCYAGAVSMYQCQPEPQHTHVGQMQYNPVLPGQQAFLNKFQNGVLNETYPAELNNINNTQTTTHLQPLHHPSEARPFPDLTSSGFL

[2] = molecular target: B1; assay: co-IP
[3] = molecular target: B1; assay: native gel or EMSA

B1: binds [1].

B2: binds [2].

B3: binds [3].

B4: binds [3].
